Patent US20220010003A1 (Boehringer Ingelheim, published 2022)
Residue numbers refer to the chain shown, from its start.

How the values were obtained:
[1] = molecular target: T1, NB1246 (V295A) (human, UniProt Q15063 22-631, limits assumed); experiment: ELISA on alanine variants of POSTN EMI-FAS4, second screen
T1 construct: also called POSTN EMI-FAS4 V295A
T1 sequence: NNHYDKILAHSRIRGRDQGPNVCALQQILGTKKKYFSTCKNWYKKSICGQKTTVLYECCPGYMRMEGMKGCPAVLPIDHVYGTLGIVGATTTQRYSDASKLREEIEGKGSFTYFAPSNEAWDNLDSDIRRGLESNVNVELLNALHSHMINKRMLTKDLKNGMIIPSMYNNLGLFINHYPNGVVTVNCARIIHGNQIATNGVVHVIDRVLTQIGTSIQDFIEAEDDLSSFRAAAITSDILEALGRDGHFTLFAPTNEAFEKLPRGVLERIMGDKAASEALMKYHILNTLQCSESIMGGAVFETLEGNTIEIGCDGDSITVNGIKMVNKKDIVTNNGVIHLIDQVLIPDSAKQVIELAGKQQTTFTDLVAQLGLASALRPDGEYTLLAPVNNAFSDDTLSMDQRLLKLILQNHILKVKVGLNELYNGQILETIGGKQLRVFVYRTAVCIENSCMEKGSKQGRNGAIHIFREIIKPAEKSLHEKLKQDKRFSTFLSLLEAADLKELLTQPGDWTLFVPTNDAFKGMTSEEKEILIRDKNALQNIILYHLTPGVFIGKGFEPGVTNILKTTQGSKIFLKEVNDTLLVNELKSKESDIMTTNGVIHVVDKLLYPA

[2] = molecular target: T2, NB1202 (N276A) (human, UniProt Q15063 22-631, limits assumed); experiment: as above
T2 construct: also called POSTN EMI-FAS4 N276A
T2 sequence: T1 sequence with N255A, A274V

[3] = molecular target: T3, recombinant mouse periostin (mouse, UniProt Q62009-2 24-811, limits assumed); experiment: cell-based or functional assay
T3 sequence (looked up): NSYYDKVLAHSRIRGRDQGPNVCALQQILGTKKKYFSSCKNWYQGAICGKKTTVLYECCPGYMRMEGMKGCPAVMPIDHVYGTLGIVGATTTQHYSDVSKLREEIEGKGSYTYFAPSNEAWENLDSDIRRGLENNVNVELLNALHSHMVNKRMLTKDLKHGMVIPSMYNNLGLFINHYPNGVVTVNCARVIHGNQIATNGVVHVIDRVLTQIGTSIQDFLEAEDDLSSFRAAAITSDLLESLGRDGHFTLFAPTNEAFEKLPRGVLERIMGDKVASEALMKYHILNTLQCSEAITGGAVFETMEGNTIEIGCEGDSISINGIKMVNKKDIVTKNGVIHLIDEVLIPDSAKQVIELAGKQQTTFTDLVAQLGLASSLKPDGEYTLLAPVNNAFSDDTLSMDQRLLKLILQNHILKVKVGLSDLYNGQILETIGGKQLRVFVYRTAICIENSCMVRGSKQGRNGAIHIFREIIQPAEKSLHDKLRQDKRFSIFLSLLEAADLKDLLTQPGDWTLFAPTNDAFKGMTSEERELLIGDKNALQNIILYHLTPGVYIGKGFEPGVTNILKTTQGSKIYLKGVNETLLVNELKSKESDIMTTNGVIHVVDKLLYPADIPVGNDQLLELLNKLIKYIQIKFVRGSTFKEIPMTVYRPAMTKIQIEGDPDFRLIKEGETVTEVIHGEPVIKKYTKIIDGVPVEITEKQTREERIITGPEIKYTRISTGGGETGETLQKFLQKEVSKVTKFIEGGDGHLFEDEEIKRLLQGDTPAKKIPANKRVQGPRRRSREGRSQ

[4] = molecular target: T4, recombinant human periostin (human, UniProt Q15063 22-836); experiment: cell-based or functional assay
T4 sequence: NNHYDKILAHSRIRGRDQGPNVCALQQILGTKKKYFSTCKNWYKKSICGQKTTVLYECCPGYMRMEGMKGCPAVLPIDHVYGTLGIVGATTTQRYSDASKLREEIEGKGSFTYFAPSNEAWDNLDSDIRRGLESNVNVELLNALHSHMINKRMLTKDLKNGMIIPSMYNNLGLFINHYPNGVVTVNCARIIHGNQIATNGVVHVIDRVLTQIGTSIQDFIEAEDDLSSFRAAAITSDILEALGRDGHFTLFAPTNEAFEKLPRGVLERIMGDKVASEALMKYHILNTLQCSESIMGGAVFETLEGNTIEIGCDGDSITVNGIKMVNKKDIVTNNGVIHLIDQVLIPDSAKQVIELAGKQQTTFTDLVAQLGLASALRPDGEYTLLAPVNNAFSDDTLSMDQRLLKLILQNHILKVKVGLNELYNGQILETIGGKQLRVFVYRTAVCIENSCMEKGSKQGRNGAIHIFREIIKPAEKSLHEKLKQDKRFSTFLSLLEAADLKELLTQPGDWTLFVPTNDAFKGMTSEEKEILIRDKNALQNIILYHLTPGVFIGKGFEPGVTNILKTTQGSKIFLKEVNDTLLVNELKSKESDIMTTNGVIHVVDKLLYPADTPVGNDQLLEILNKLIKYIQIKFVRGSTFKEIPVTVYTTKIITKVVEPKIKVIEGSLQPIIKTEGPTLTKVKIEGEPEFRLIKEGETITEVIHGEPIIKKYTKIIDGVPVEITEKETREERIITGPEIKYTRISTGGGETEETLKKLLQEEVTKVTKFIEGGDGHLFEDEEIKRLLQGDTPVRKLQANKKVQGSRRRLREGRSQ

B1: NB0828 (antibody, V domains shown)
VH: QVQLVQSGAEVKKPGASVKVSCKASGYTFTSYGISWVRQAPGQGLEWMGWISAYNGNTNYAQKLQGRVTMTTDTSTSTAYMELRSLRSDDTAVYYCARDMLVVPFDYWGQGTLVTVSS
VL: QSVLTQSSSASGTPGQTVTVSCSGSSSDIGSNRVNWYQQLPGTAPKLLIYSNDQRPSGVPDRFSGSKSGTSASLAISGLQSADEADYYCAAWDDSLSTYVFGSGTKVTVL
[1]
  loss from the max signal: > 50%
[2]
  loss from the max signal: > 50%
[3]
  CAA IC50: 26 nM
[4]
  CAA IC50: 24.3 nM
